Measurements from paper PMC11194062, “The clade-specific target recognition mechanisms of plant RISCs”.

Legend:
AGO4 D660A [1] = target: T1, AGO4 D660A (Arabidopsis thaliana, UniProt Q9ZVD5 1-924, D660A); test: filter binding; did not bind at all; 100 mM KOAc, 18 mM HEPES pH 7.4, 3 mM Mg(OAc)2, 5 mM DTT, 0.01% IGEPAL CA-630, 0.01 mg/ml yeast tRNA; 20 pM target; 25 C, 1 h; conditions: protein: ivt; tags: N-terminal 3xFLAG-SUMO, removed by SUMOstar elution; label: target 3' 32P-cordycepin; only g2-g8 paired
T1 sequence: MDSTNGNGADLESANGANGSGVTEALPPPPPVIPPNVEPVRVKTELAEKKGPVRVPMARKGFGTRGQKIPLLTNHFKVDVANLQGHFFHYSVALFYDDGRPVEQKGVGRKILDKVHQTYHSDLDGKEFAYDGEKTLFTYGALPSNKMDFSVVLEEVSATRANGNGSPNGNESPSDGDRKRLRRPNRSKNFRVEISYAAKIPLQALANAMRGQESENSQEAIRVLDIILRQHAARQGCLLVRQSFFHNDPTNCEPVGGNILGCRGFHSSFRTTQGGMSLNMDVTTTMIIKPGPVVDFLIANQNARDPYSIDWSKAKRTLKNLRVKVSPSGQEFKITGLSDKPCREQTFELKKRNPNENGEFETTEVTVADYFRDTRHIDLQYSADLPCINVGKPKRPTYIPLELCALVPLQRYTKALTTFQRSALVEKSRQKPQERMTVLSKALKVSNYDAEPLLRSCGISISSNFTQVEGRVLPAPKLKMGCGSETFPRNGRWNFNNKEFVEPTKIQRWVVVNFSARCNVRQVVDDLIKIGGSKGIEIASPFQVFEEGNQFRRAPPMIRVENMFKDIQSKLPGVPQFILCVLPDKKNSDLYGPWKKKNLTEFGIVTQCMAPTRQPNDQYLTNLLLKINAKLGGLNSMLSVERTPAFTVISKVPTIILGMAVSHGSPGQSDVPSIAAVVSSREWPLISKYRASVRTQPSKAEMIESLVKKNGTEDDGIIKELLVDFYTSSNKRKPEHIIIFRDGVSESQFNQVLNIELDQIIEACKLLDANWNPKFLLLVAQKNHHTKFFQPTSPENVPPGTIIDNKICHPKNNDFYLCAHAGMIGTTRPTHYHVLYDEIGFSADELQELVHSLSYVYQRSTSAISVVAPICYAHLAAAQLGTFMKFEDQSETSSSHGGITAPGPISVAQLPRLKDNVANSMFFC

AGO4 D660A [2] = target: T1, AGO4 D660A; test: filter binding; 100 mM KOAc, 18 mM HEPES pH 7.4, 3 mM Mg(OAc)2, 5 mM DTT, 0.01% IGEPAL CA-630, 0.01 mg/ml yeast tRNA; 20 pM target; 25 C, 1 h; conditions: protein: ivt, tags: N-terminal 3xFLAG-SUMO, removed by SUMOstar elution, label: target 3' 32P-cordycepin; for Kd: target 28 nt
AGO6 D623A = target: T2, AGO6 D623A (Arabidopsis thaliana, UniProt O48771 1-878, D623A); test: as above; conditions: protein: ivt; tags: N-terminal 3xFLAG-SUMO, removed by SUMOstar elution; label: target 3' 32P-cordycepin; target 28 nt
T2 sequence: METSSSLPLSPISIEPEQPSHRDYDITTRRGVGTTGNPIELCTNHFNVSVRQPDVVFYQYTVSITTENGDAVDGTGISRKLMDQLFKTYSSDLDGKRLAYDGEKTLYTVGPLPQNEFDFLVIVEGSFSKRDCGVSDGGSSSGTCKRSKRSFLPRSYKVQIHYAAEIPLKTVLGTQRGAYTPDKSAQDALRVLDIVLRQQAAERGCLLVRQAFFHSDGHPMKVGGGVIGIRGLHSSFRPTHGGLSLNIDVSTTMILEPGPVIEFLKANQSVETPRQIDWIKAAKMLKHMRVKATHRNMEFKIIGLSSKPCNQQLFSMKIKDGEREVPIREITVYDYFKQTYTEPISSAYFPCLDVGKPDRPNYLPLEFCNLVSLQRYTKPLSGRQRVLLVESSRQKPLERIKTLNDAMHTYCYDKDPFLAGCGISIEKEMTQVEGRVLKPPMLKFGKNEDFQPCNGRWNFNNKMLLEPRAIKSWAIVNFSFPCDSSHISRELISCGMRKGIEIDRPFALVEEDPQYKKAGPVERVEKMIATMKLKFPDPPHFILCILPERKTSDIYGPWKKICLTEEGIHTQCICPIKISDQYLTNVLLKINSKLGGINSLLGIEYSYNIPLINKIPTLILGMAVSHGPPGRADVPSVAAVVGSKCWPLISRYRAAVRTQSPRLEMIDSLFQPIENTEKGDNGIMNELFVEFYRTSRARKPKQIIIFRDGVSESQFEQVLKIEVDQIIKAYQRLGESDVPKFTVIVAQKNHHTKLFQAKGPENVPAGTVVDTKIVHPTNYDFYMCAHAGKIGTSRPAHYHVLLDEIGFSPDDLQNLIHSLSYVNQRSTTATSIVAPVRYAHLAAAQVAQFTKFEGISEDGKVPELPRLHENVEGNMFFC

AGO9 D632A = target: T3, AGO9 D632A (Arabidopsis thaliana, UniProt Q84VQ0 1-896, D632A); test: as above; conditions: protein: ivt; tags: N-terminal 3xFLAG-SUMO, removed by SUMOstar elution; label: target 3' 32P-cordycepin; target 28 nt
T3 sequence: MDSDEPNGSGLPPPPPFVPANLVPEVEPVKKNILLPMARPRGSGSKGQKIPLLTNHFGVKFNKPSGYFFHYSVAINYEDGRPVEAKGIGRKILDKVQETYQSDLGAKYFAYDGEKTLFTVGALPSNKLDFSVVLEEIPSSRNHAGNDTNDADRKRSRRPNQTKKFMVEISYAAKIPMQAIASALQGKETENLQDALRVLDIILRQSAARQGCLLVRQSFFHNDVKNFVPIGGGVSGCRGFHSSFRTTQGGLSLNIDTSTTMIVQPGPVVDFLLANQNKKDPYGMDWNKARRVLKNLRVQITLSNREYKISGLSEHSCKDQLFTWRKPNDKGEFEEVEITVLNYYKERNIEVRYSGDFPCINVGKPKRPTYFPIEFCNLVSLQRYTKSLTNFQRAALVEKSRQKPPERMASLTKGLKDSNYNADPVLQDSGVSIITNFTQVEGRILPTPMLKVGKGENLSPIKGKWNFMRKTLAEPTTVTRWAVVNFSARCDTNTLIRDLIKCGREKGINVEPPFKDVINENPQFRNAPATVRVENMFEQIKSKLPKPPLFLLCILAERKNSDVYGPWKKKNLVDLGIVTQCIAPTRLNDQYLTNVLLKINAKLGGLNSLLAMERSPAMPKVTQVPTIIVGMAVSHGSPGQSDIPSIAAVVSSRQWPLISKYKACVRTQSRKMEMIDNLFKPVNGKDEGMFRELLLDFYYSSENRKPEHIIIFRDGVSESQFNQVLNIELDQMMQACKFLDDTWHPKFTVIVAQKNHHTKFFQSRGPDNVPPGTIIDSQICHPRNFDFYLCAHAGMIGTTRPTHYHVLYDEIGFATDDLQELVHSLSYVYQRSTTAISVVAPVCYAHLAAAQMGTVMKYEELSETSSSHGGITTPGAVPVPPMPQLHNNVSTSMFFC

AGO4 D660A [3] = target: T1, AGO4 D660A; test: as above; conditions: protein: ivt; tags: N-terminal 3xFLAG-SUMO, removed by SUMOstar elution; label: target 3' 32P-cordycepin; mismatch at g20-g21

B1: 24-nt 5'A guide / seed-only (2-8) DNA (DNA:RNA)
RNA: AGAGGUAGAUCCUUGUAUAGUCUC
DNA: ACCTCTGATATGTTCCTACTACCTCTCAA
modifications: guide 3' 2'-O-methyl
- binding result (AGO4 D660A [1]): no binding

B2: 24-nt 5'A guide / t1U RNA (dsRNA)
RNA 1: AGAGGUAGAUCCUUGUAUAGUCUC
RNA 2: ACGAGACUAUACAAGGAUCUACCUCUCAA
modifications: guide 3' 2'-O-methyl
- Kd (AGO4 D660A [2]): 1.71 pM
- Kd (AGO6 D623A): 50.4 pM
- Kd (AGO9 D632A): 12.7 pM

B3: 24-nt 5'A guide / mm20-21 DNA (DNA:RNA)
RNA: AGAGGUAGAUCCUUGUAUAGUCUC
DNA: ACGAGTGTATACAAGGATCTACCTCTCAA
modifications: guide 3' 2'-O-methyl
- binding result (AGO4 D660A [2]; mismatch at g20-g21): binds

B4: 24-nt 5'A guide / mm6-7 DNA (DNA:RNA)
RNA: AGAGGUAGAUCCUUGUAUAGUCUC
DNA: ACGAGACTATACAAGGATCATCCTCTCAA
modifications: guide 3' 2'-O-methyl
- binding result (AGO4 D660A [2]; mismatch at g6-g7): binds

B5: 24-nt 5'A guide / mm23-24 DNA (DNA:RNA)
RNA: AGAGGUAGAUCCUUGUAUAGUCUC
DNA: ACCTGACTATACAAGGATCTACCTCTCAA
modifications: guide 3' 2'-O-methyl
- binding result (AGO4 D660A [2]; mismatch at g23-g24): binds

B6: 24-nt 5'A guide / t1T DNA (DNA:RNA)
RNA: AGAGGUAGAUCCUUGUAUAGUCUC
DNA: ACGAGACTATACAAGGATCTACCTCTCAA
modifications: guide 3' 2'-O-methyl
- Kd (AGO4 D660A [2]): 0.93 pM
- Kd (AGO6 D623A): 7.3 pM
- Kd (AGO9 D632A): 2.12 pM

B7: 24-nt 5'A guide / mm8-9 DNA (DNA:RNA)
RNA: AGAGGUAGAUCCUUGUAUAGUCUC
DNA: ACGAGACTATACAAGGAAGTACCTCTCAA
modifications: guide 3' 2'-O-methyl
- binding result (AGO4 D660A [2]; mismatch at g8-g9): binds

B8: 24-nt 5'A guide / seed-only (2-8) RNA (dsRNA)
RNA 1: AGAGGUAGAUCCUUGUAUAGUCUC
RNA 2: ACCUCUGAUAUGUUCCUACUACCUCUCAA
modifications: guide 3' 2'-O-methyl
- binding result (AGO4 D660A [1]): no binding

B9: 24-nt 5'A guide / mm20-21 RNA (dsRNA)
RNA 1: AGAGGUAGAUCCUUGUAUAGUCUC
RNA 2: ACGAGUGUAUACAAGGAUCUACCUCUCAA
modifications: guide 3' 2'-O-methyl
- binding signal (AGO4 D660A [3]): ~10 fold lower affinity than t1U
